Measurements from patent US20140079711A1.

Key:
[1] = target: CD147 Asp19-Asn117-Fc fusion protein (human) (UniProt P35613); experiment: competition ELISA on coated CD147 Asp19-Asn117-Fc; competitor 2H3; 5F6 against labeled 2H3
[2] = target: CD147 N-domain (Asp19 to Asn117 of SEQ ID NO: 1) (human); experiment: SPR (Biacore 3000), mAb captured by anti-mouse Fc, N-domain fragment injected
[3] = target: CD147 Asp19-Asn117-Fc fusion protein (human) (UniProt P35613); experiment: competition ELISA on coated CD147 Asp19-Asn117-Fc; competitor 2H3; 2C8 as competitor against 2H3 on coated CD147 Asp19-Asn117-Fc
[4] = target: CD147 Asp19-Asn117-Fc fusion protein (human) (UniProt P35613); experiment: competition ELISA on coated CD147 Asp19-Asn117-Fc; competitor 5F6; 2C8 as competitor against 5F6 on coated CD147 Asp19-Asn117-Fc

B1: 5F6(mIgG1) (antibody, V domains shown)
VH: EMKLEESGGGLVQPGGSMKLSCVASGFTFSNYWMNWVRQSPEKGLEWVAQIRLKSYNYATHYAESVKGRFTISRDDSKSSVYLQMNNLRAEDTGIYYCTPDGSDYWGQGTTLTVSS
VL: SIVMTQTPKFLLVSAGDRVTITCKASQSVSNDVAWYQQKPGQSPKLLIYYASNRYTGVPDRFTGSGYGTDFTFTISTVQAEDLAVYFCQQDYSSPYTFGGGTKLEIK
An IC50 [1] of 1000 nM and a Kd [2] of 0.46 nM were found for B1 in this work.

B2: 2C8(mIgG1) (antibody, V domains shown)
VH: EMKLEESGGGLVQPGGSMKLSCVASGFTFSNYRMNWVRQSPEKGLEWVAQIRLKSYNYATHYAESVKGRFTISRDDSKSSVYLQMNNLRAEDTGIYYCTPDGSDYWGQGTTLTVSS
VL: DILMTQSPSSMSVSLGDTVSITCHASQGISSSIGWLQQKPGKSFKGLIYHGTNLEDGVPSRFTGSGSGADYSLTISSLESEDFADYYCVQYAQFPYTFGGGTKLEIK
A Kd [2] of 0.43 nM, an IC50 [3] of 30 nM and an IC50 [4] of 30 nM were found for B2 in this work.
